Data from publication PMC3649970, “A Unique Spumavirus Gag N-terminal Domain with Functional Properties of Orthoretroviral Matrix and Capsid” (PLoS Pathogens, 2013).
Positions count from the first letter of the chain named.

What was measured:
[1] = biological target: T1, PFV-Gag-NtD (amino terminal domain of Prototypic Foamy Virus Gag, residues 1-179) (Prototypic foamy virus (PFV), UniProt P14349 1-179); experiment: AUC
T1 chain: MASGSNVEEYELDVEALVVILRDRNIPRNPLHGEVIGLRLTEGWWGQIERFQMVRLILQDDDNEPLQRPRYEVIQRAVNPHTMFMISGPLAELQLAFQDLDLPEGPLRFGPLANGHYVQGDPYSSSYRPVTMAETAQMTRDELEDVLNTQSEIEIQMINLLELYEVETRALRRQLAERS

PFV-Gag-NtD L21N = biological target: T2, PFV-Gag-NtD L21N (Prototypic foamy virus (PFV), UniProt P14349 1-179, L21N); experiment: AUC; sedimentation velocity of 75 µM equimolar mixtures of Gag-NtD and Env peptide, absorbance at 280 nm; bound fraction from the integrated absorbance of the 3S species in C(S); conditions: both partners purified
T2 construct: Gag of Prototypic Foamy Virus, residues 1-179 (Gag-NtD) with L21N
T2 sequence (looked up): T1 chain with L21N

PFV-Gag-NtD V14S = biological target: T3, PFV-Gag-NtD V14S (Prototypic foamy virus (PFV), UniProt P14349 1-179, V14S); experiment: as above; conditions: both partners purified
T3 construct: Gag of Prototypic Foamy Virus, residues 1-179 (Gag-NtD) with V14S
T3 sequence (looked up): T1 chain with V14S

PFV-Gag-NtD L17S = biological target: T4, PFV-Gag-NtD L17S (Prototypic foamy virus (PFV), UniProt P14349 1-179, L17S); experiment: as above; conditions: both partners purified
T4 construct: Gag of Prototypic Foamy Virus, residues 1-179 (Gag-NtD) with L17S
T4 sequence (looked up): T1 chain with L17S

B1: PFV Env leader peptide residues 1-20 (peptide, UniProt P14351 1-20, looked up)
peptide: MAPPMTLQQWIIWKKMNKAH
notes: Envelope (Env) protein of Prototypic Foamy Virus, N-terminal leader peptide region, residues 1-20 (Met1 to His20); the text names M1, A2, P3, P4, M5, T6, L7, Q9, W10, W13, M16, A19, H20; also called Env_(1-20); Env(1-20); source: synthetic peptide, bought HPLC purified: Pepceuticals Ltd
Kd [1]: 7.5 µM | binding result (PFV-Gag-NtD L21N): binds | binding result (PFV-Gag-NtD V14S): binds | fold decrease of affinity against wt PFV-Gag-NtD (PFV-Gag-NtD L17S): 2 fold
